Test results reported in US20070254830A1 (UNIVERSITY OF TOKYO, published 2007).

Biological target: T1, Myc/His-tagged C20orf20 (Homo sapiens (Human), UniProt Q9NV56 1-204)
T1 construct: Expressed in transfected COS7, SW480, HEK293 or HEK293F cells from pcDNA3.1Myc/His-C20orf20; also called myc-tagged C20orf20; pcDNA3.1Myc/His-C20orf20; not shown: Myc/His tag from the pcDNA3.1Myc/His vector
Experiment: reciprocal co-immunoprecipitation (anti-HA IP / anti-myc blot and anti-myc IP / anti-HA blot) from co-transfected COS7 cells
Method: The entire coding region of p120 was amplified by RT-PCR and cloned into pCAGGS-HA vector. The primer sequences used for the amplification were 5′-[…]-3′ (SEQ ID NO.5) and 5′-[…]-3′ (SEQ ID NO.6). We transfected COS7 cells with pcDNA3.1Myc/His-C20orf20, pCAGGS-HA-p120 or their combination, and performed immunoprecipitation assay using anti-Myc or anti-HA antibody. Cells were washed with PBS and lysed in TNE buffer containing 150 mM NaCl, 0.5% NP40, 10 mM Tris-HCl (pH7.8), supplemented with a Protease Inhibitor Cocktail 3 (Roche). In a typical immunoprecipitation reaction, 400 μg of whole-cell extract was incubated with 1 μg of anti-Myc (Santa Cruz) or anti-HA antibody (Roche), and 20 μl of protein G Sepharose beads (Zymed) at 4° C. for 2 hr. Beads were washed four times in 1 ml of TNE buffer and proteins bound to the beads were eluted by boiling in Laemmli sample buffer. The precipitated protein was separated by SDS-PAGE and immunoblot analysis was carried out using with either rat anti-HA antibody or mouse anti-Myc antibody, respectively.

T1 sequence (Q9NV56 whole entry): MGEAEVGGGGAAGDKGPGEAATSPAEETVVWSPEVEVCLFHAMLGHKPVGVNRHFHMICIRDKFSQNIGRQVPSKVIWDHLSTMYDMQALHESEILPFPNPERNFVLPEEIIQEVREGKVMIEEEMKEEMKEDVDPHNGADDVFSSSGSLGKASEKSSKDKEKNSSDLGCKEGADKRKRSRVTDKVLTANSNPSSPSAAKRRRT

B1: HA-tagged p120 (other)
chain: MRSGDQNWVSVSRAIKPFAEPGRPPDWFSQKHCASQYSELLETTETPKRKRGEKGEVVETVEDVIVRKLTAERVEELKKVIKETQERYRRLKRDAELIQAGHMDSRLDELCNDIATKKKLEEEEAEVKRKATDAAYQARQAVKTPPRRLPTVMVRSPIDSASPGGDYPLGDLTPTTMEEATSGVTPGTLPSTPVTSFPGIPDTLPPGSAPLEAPMTPVTDDSPQKKMLGQKATPPPSPLLSELLKKGSLLPTSPRLVNESEMAVASGHLNSTGVLLEVGGVLPMIHGGEIQQTPNTVAASPAASGAPTLSRLLEAGPTQFTTPLASFTTVASEPPVKLVPPPVESVSHATIVMMPALPAPSSAPAVSTTESVAPVSQPDNCVPMEAVGDPHTVTVSMDSSEISMIINSIKEECFRSGVAEAPVGSKAPSIDGKEELDLAEKMDIAVSYTGEELDFETVGDIIAIIEDKVDDHPEVLDVAAVEAALSFCEENDDPQSLPGPWEHPIQQERDKPVPLPAPEMTVKQERLDFEETENKGIHELVDIREPSAEIKVEPAEPEPVISGAEIVAGVVPATSMEPPELRSQDLDEELGSTAAGEIVEADVAIGKGDETPLTNVKTEASPESMLSPSHGSNPIEDPLEAETQHKFEMSDSLKEESGTIFGSQIKDAPGEDEEEDGVSEAASLEEPKEEDQGEGYLSEMDNEPPVSESDDGFSIHNATLQSHTLADSIPSSPASSQFSVCSEDQEAIQAQKIWKKAIMLVWRAAANHRYANVFLQPVTDDIAPGYHSIVQRPMDLSTIKKNIENGLIRSTAEFQRDIMLMFQNAVMYNSSDHDVYHMAVEMQRDVLEQIQQFLATQLIMQTSESGISAKSLRGRDSTRKQDASEKDSVPMGSPAFLLSLFDGGTRGRRCAIEADMKMKK
notes: expressed in transfected COS7, SW480, HEK293 or HEK293F cells; also called SMAP; not shown: HA tag from the pCAGGS-HA vector
B1: binds.
